From the supplement of paper PMC10567573

B1: STK38L (parent)
chain: NWKETLVFPPEVPISEKAKDLILR

Variants of: B1
Test: protein stability index of a GFP-peptide fusion (GPS, HEK-293T) (PSI 1-6); higher = more stable
Conditions: c terminus: a fixed tail appended
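Also: lentivirally expressed fusions sorted by FACS into six bins by GFP to DsRed ratio, PSI derived from sequencing read proportions per bin multiplied by bin number.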

Protein stability index of substitutions, site by site:
V7: C 3.35 | D 3.81 | E 3.53 | F 2.63 | G 4.56 | H 3.27 | I 3.09 | K 2.95 | L 3.65 | M 2.94 | N 3.63 | P 4.19 | Q 3.95 | R 2.72 | S 2.54 | T 3.33 | W 4.68 | Y 2.9
F8: A 4.08 | C 4.02 | D 3.9 | E 3.98 | G 3.02 | H 3.33 | I 3.43 | K 4.21 | L 2.94 | M 3.78 | N 3.1 | Q 3.53 | S 3.73 | T 3.58 | V 3.75 | W 3.5
P9: A 2.69 | C 2.27 | D 2.77 | E 2.75 | F 2.34 | G 1.93 | H 2.57 | I 2.75 | K 2.68 | L 2.32 | M 2.05 | N 2.78 | Q 4.18 | R 2.93 | S 3.06 | T 2.9 | V 2.52 | W 1.56 | Y 1.96
P10: A 2.65 | C 2.81 | D 3.43 | F 1.8 | G 2.49 | H 3.03 | I 2.14 | K 3.03 | L 2.81 | M 2.8 | Q 3.3 | S 2.6 | T 3.35 | V 3.02 | W 1.78 | Y 2.48
E11: A 2.87 | C 2.89 | D 3.15 | F 1.92 | G 2.65 | H 2.81 | I 2.52 | L 3.58 | M 2.39 | N 2.69 | Q 3.36 | R 2.87 | S 2.3 | T 2.68 | V 3.03 | W 2.63 | Y 2.21
V12: C 2.73 | D 3.55 | E 3.72 | F 3.05 | G 2.92 | H 2.72 | I 3.52 | K 3.76 | L 2.67 | M 3.15 | N 3.26 | P 3.48 | Q 2.89 | R 3.92 | S 3.86 | T 2.97 | W 3.95 | Y 2.62
P13: C 2.37 | D 3.4 | E 3.1 | F 2.35 | G 3.1 | H 2.9 | K 2.46 | L 2.42 | M 2.36 | N 3.27 | R 2.57 | S 3.92 | T 2.44 | V 3.67 | Y 1.97
I14: A 3.44 | C 3.19 | D 4.44 | E 3.53 | F 2.32 | H 2.84 | K 4.07 | L 2.88 | M 3.77 | N 3.38 | Q 3.23 | R 3.44 | T 4.42 | W 2.05 | Y 2.1
S15: A 2.84 | C 3.67 | D 4.1 | E 4.21 | F 2.44 | G 2.92 | H 2.68 | I 1.89 | K 3.09 | L 1.84 | M 3.37 | N 2.62 | P 2.68 | Q 3.87 | R 2.79 | T 3.27 | V 2.31 | W 2 | Y 2.81
E16: A 2.66 | C 2.7 | D 3.64 | F 2.04 | G 2.31 | H 2.34 | I 2.14 | K 2.17 | M 1.66 | N 3.3 | P 3.02 | Q 2.43 | R 2.48 | S 2.33
